Measured values reported in publication PMC11754618, “Chemical tools to define and manipulate interferon-inducible Ubl protease USP18” (Nature Communications, 2025).

T1: His6-Mm.USP18 (46-368) (mouse, UniProt Q9WTV6 46-368)
T1 construct: ubiquitin-specific protease 18 (USP18), mouse, residues 46-368; Expressed as MBP-tev-His6-USP18 from pDest-795 (Addgene 161881 is the vector); the TEV site ENLYFQG was cut, His6 stays and serves for capture on the NTA chip; also called mouse USP18; recombinant mouse USP18; source: insect cells (baculovirus), purified (IMAC, TEV digest, second IMAC); not shown: MBP, N-terminal, cleaved; His6, …
T1 sequence (looked up): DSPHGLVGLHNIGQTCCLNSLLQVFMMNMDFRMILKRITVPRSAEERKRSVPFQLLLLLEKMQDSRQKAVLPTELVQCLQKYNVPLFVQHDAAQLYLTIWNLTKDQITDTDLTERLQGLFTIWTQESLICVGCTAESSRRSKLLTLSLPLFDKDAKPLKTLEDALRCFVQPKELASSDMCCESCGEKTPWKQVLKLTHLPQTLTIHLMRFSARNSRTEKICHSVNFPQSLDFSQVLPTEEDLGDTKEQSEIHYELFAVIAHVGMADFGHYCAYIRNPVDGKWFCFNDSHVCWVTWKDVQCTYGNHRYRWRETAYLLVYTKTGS

T2: His6-Hs.USP18 (16-372) (human, UniProt Q9UMW8 16-372)
T2 construct: ubiquitin-specific protease 18 (USP18), human, residues 16-372; Expressed as MBP-tev-His6-USP18 from pDest-795 (Addgene 161881 is the vector); the TEV site was cut, His6 stays; also called human USP18; recombinant human USP18; source: insect cells (baculovirus), purified (IMAC, TEV digest, second IMAC); not shown: MBP, N-terminal, cleaved; His6, N-terminal, kept
T2 sequence (looked up): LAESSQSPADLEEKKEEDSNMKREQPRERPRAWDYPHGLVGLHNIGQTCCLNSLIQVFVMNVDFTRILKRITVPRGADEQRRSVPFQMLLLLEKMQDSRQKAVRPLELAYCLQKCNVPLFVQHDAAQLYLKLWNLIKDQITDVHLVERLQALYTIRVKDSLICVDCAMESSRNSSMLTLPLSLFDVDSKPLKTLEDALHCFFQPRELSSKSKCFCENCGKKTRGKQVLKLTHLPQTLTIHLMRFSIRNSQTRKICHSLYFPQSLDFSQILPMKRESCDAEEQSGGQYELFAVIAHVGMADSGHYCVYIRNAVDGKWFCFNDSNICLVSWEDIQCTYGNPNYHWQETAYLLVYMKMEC


How the values were obtained:
Conditions in all cases: both partners purified
His6-Mm.USP18 (46-368) [1] = biological target: T1, His6-Mm.USP18 (46-368); test: covalent labelling by an activity-based probe (SDS-PAGE); recombinant USP18 (2 μM), USP5 (1 μM) or USP16 (0.45 μM) with Ac-Ubl-PA probes (10 μM), 3 h, room temperature; higher band on SDS-PAGE, SYPRO Ruby staining
His6-Hs.USP18 (16-372) [2] = biological target: T2, His6-Hs.USP18 (16-372); test: as above
His6-Mm.USP18 (46-368) [3] = biological target: T1, His6-Mm.USP18 (46-368); test: SPR; BIAcore 3000; mouse and human USP18 immobilised via the N-terminal His6 tag on an NTA chip; 25 °C; 50 mM HEPES, 150 mM NaCl, 0.05 mM EDTA, 0.5 mM DTT, 0.01% P20, pH 7.5; 20 μL/min; Langmuir 1:1 model with drift
His6-Hs.USP18 (16-372) [4] = biological target: T2, His6-Hs.USP18 (16-372); test: as above

Binder	binding result (His6-Mm.USP18 (46-368) [1])	binding result (His6-Hs.USP18 (16-372) [2])	binding result (His6-Mm.USP18 (46-368) [3])	binding result (His6-Hs.USP18 (16-372) [4])
Ac-mISG15CTD[WT]-PA (domain or fragment, mouse, N-terminal acetyl; C-terminal propargylamine (PA) warhead replacing Gly155, C-terminal domain of mouse ISG15, Leu80~Gly154; also called Ac-mISG15CTD-PA; WT probe; source: synthetic (solid-phase peptide synthesis), RP-HPLC purified) LSILVRNERGHSNIYEVFLTQTVDTLKKKVSQREQVHEDQFWLSFEGRPMEDKELLGEYGLKPQSTVIKHLRLRG	binds	binds	–	–
Ac-mISG15CTD-OH (wild type) (domain or fragment, mouse, N-terminal acetyl, C-terminal domain of mouse ISG15, Leu80~Gly154; also called Ac-mISG15CTD[WT]-OH; source: synthetic (solid-phase peptide synthesis), RP-HPLC purified) LSILVRNERGHSNIYEVFLTQTVDTLKKKVSQREQVHEDQFWLSFEGRPMEDKELLGEYGLKPQSTVIKHLRLRG	–	–	binds	binds
